B1: Azoarcus group I ribozyme (parent)
chain: GUGCCUUGCGCCGGGAAACCACGCAAGGGAUGGUGUCAAAUUCGGCGAAACCUAAGCGCCCGCCCGGGCGUAUGGCAACGCCGAGCCAAGCUUCGGCGCCUGCGCCGAUGAAGGUGUAGAGACUAGACGGCACCCACCUAAGGCAAACGCUAUGGUGAAGGCAUAGUCCAGGGAGUGGCGAAAGUCACACAAACCGG

The variants in the series derive from B1. Nature of the series: reverse-splicing fitness (ratio to wild type); higher = more active; in vitro selection; Mg2+ level not given. The procedure, abridged: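 An in vitro group I ribozyme library with randomized positions was T7-transcribed and gel-purified. In triplicate, 10 pmol RNA in EPPS pH 7.5 was reacted with 50 pmoles of a 30-nt RNA substrate for 1 h at 37 °C across several added MgCl2 levels (1–48 mM), then stopped with EDTA. Products were reverse transcribed from a substrate-complementary primer, PCR-amplified and sequenced (HiSeq 4000). Fitness is a variant's read proportion after selection over that before, normalised to wild type.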
With A111U A120G A145U C169G U176A, the reverse-splicing fitness amounted to 0.0309.

For the variant A111U A120G A145U C169G U176G, the reverse-splicing fitness turned out to be 0.00486.

For A111U A120G A145U C169G U176C, the reverse-splicing fitness is 0.045.

For the variant A111U A120G A145U C150A C169U U176C, the reverse-splicing fitness stood at 0.0173.

Take A111U A120G A145U C150A C169U U176A: the reverse-splicing fitness worked out at 0.0271.

Consider A111U A120G A145U C150A C169U U176G, for which the reverse-splicing fitness was determined as 0.0052.

Regarding A111U A120G A145U C150U C169U, the reverse-splicing fitness was determined as 0.105.

Consider A111U A120G A145U C150U C169G, for which the reverse-splicing fitness turned out to be 0.129.

As for A111U A120G A145U C150U C169A, the reverse-splicing fitness was determined as 0.0657.

Take A111U A120U A145C C169U U176A: the reverse-splicing fitness worked out at 0.00945.

For the variant A111U A120U A145C C169U U176C, the reverse-splicing fitness worked out at 0.00989.

As for A111U A120U A145C C169U U176G, the reverse-splicing fitness turned out to be 0.00245.

For the variant A111U A120U A145C C169A U176C, the reverse-splicing fitness turned out to be 0.00249.

Take A111U A120U A145C C169A U176G: the reverse-splicing fitness came to 0.00152.

As to A111U A120U A145C C169A U176A, the reverse-splicing fitness stood at 0.0026.

As to A111U A120G C169A U176C, the reverse-splicing fitness was 0.0386.

In the case of A111U A120G C169A U176A, the reverse-splicing fitness was found to be 0.0264.

Consider A111U A120G C169A U176G, for which the reverse-splicing fitness was found to be 0.00454.

Turning to A111U A120U A145G C169G U176C, the reverse-splicing fitness came to 0.00918.

A111U A120U A145G C169G U176G: the reverse-splicing fitness was determined as 0.00167.

On to A111U A120U A145G C169G U176A, for which the reverse-splicing fitness came out at 0.00549.

Turning to A111U A120G A145U C150U C169G U176C, the reverse-splicing fitness was determined as 0.0378.

Take A111U A120G A145U C150U C169G U176A: the reverse-splicing fitness came to 0.0274.

Regarding A111U A120G A145U C150U C169G U176G, the reverse-splicing fitness was determined as 0.00496.

As for A111U A120U A145G C169G, the reverse-splicing fitness was 0.0528.

Take A111U A120U A145G C169U: the reverse-splicing fitness amounted to 0.076.

Consider A111U A120U A145G C169A, for which the reverse-splicing fitness was determined as 0.00419.

In the case of A111U A120G A145U C150U, the reverse-splicing fitness is 0.104.

As to A111U A120G A145U C150A, the reverse-splicing fitness is 0.0183.

For the variant A111U A120G A145U C150G, the reverse-splicing fitness is 0.02.

For the variant A111U A120G C150A U176A, the reverse-splicing fitness stood at 0.0147.

Consider A111U A120G C150A U176G, for which the reverse-splicing fitness is 0.00685.

A111U A120G C150A U176C: the reverse-splicing fitness is 0.0216.

A111U A120G C169U U176C: the reverse-splicing fitness worked out at 0.055.

Regarding A111U A120G C169U U176A, the reverse-splicing fitness was found to be 0.0505.

For A111U A120G C169U U176G, the reverse-splicing fitness stood at 0.00807.

Consider A111U A120G A145G C169G U176C, for which the reverse-splicing fitness is 0.0601.

As to A111U A120G A145G C169G U176A, the reverse-splicing fitness is 0.0455.

For the variant A111U A120G A145G C169G U176G, the reverse-splicing fitness stood at 0.00492.

On to A111U A120U A145C C150U, for which the reverse-splicing fitness worked out at 0.15.

On to A111U A120U A145C C150G, for which the reverse-splicing fitness is 0.0741.

As for A111U A120U A145C C150A, the reverse-splicing fitness came to 0.0261.

Consider A111U A120U A145G C150G C169A U176G, for which the reverse-splicing fitness came out at 0.00452.

For the variant A111U A120U A145G C150G C169A U176A, the reverse-splicing fitness came out at 0.0087.

For the variant A111U A120U A145G C150G C169A U176C, the reverse-splicing fitness was found to be 0.00774.

With A111U A120U A145C C150G C169A U176G, the reverse-splicing fitness came out at 0.00254.

For A111U A120U A145C C150G C169A U176C, the reverse-splicing fitness turned out to be 0.00276.

In the case of A111U A120U A145C C150G C169A U176A, the reverse-splicing fitness is 0.00234.

As to A111U A120G A145G C150U C169G U176G, the reverse-splicing fitness came out at 0.00498.

In the case of A111U A120G A145G C150U C169G U176C, the reverse-splicing fitness stood at 0.0424.

As to A111U A120G A145G C150U C169G U176A, the reverse-splicing fitness came out at 0.0272.

Take A111U A120G A145U C169A U176A: the reverse-splicing fitness turned out to be 0.0201.

Take A111U A120G A145U C169A U176G: the reverse-splicing fitness was 0.00427.

As to A111U A120G A145U C169A U176C, the reverse-splicing fitness was determined as 0.0247.

As to A111U A120G C150A C169A U176C, the reverse-splicing fitness amounted to 0.0201.

As to A111U A120G C150A C169A U176G, the reverse-splicing fitness was determined as 0.00606.

For the variant A111U A120G C150A C169A U176A, the reverse-splicing fitness was 0.0237.

Turning to A111U A120U A145U C150A C169G U176A, the reverse-splicing fitness was 0.00269.

Regarding A111U A120U A145U C150A C169G U176C, the reverse-splicing fitness is 0.00325.

On to A111U A120U A145U C150A C169G U176G, for which the reverse-splicing fitness was found to be 0.00225.

As to A111U A120G A145G C150U C169A U176A, the reverse-splicing fitness worked out at 0.0224.

As for A111U A120G A145G C150U C169A U176G, the reverse-splicing fitness is 0.00525.

As to A111U A120G A145G C150U C169A U176C, the reverse-splicing fitness stood at 0.0274.

Consider A111U A120U A145G C150U U176G, for which the reverse-splicing fitness was found to be 0.0253.

For the variant A111U A120U A145G C150U U176C, the reverse-splicing fitness was 0.206.

On to A111U A120U A145G C150U U176A, for which the reverse-splicing fitness was found to be 0.18.

Take A111U A120G A145U C150G U176C: the reverse-splicing fitness is 0.0142.

For the variant A111U A120G A145U C150G U176G, the reverse-splicing fitness worked out at 0.00309.

For the variant A111U A120G A145U C150G U176A, the reverse-splicing fitness was 0.00927.

Consider A111U A120G C150G U176C, for which the reverse-splicing fitness was found to be 0.0112.

Turning to A111U A120G C150G U176G, the reverse-splicing fitness was found to be 0.00275.

On to A111U A120G C150G U176A, for which the reverse-splicing fitness is 0.00753.

A111U A120G A145U C150G C169U U176C: the reverse-splicing fitness was 0.0151.

For the variant A111U A120G A145U C150G C169U U176A, the reverse-splicing fitness amounted to 0.0147.

On to A111U A120G A145U C150G C169U U176G, for which the reverse-splicing fitness was 0.00433.

On to A111U A120G A145G C150U C169U U176A, for which the reverse-splicing fitness was determined as 0.0386.

With A111U A120G A145G C150U C169U U176C, the reverse-splicing fitness was found to be 0.0447.

For A111U A120G A145G C150U C169U U176G, the reverse-splicing fitness is 0.00563.

Regarding A111U A120G C150U C169A U176A, the reverse-splicing fitness turned out to be 0.0189.

For the variant A111U A120G C150U C169A U176C, the reverse-splicing fitness was 0.0245.

Regarding A111U A120G C150U C169A U176G, the reverse-splicing fitness stood at 0.00517.

For A111U A120U A145U C150U C169G U176A, the reverse-splicing fitness was 0.00542.

As to A111U A120U A145U C150U C169G U176G, the reverse-splicing fitness stood at 0.00227.
